Where no end group is shown, it is not given here.
Biological target: rabbit polyclonal anti-Syn2vE1a antibodies
Experiment: epitope peptide competition: antisera pre-absorbed with 3 mg/ml synthetic epitope peptide, then Western blot on Syn2vE1a lysate

- percent of anti-Syn2vE1a signals blocked: > 98%
B1: synthetic epitope peptide (C)…-amide (peptide)
peptide: CGIRRAPLYKRHPTGTA-NH2

— patent US20090214555A1
